Assay results from patent US20090227489A1 (UNIVERSITY OF SOUTH FLORIDA A FLORIDA, published 2009).

Target: the molecule itself
Assay: EMSA supershift, hSIE probe, nuclear extracts of Stat3β-transfected B16 cells
Text: EGF-induced Stat3 binding activity in NIH3T3 (lane 4) was used as a positive control. By supershift analysis with antibody that recognizes Stat3 but not Stat3β or antibody that recognizes Stat3β but not Stat3, it was shown that there were Stat3-Stat3 homodimers in mock-transfected B16 cells and empty vector-transfected B16 cells. Overexpression of Stat3β in Stat3β-transfected B16 cells results in mostly Stat3β-Stat3β homodimer formation.

B1: Stat3β, dominant-negative Stat3 variant (ectopic, from pIRES-Stat3β) (other)
chain: AQWNQLQQLDTRYLEQLHQLYSDSFPMELRQFLAPWIESQDWAYAASKESHATLVFHNLLGEIDQQYSRFLQESNVLYQHNLRRIKQFLQSRYLEKPMEIARIVARCLWEESRLLQTAATAAQQGGQANHPTAAVVTEKQQMLEQHLQDVRKRVQDLEQKMKVVENLQDDFDFNYKTLKSQGDMQDLNGNNQSVTRQKMQQLEQMLTALDQMRRSIVSELAGLLSAMEYVQKTLTDEELADWKRRQQIACIGGPPNICLDRLENWITSLAESQLQTRQQIKKLEELQQKVSYKGDPIVQHRPMLEERIVELFRNLMKSAFVVERQPCMPMHPDRPLVIKTGVQFTTKVRLLVKFPELNYQLKIKVCIDKDSGDVAALRGSRKFNILGTNTKVMNMEESNNGSLSAEFKHLTLREQRCGNGGRANCDASLIVTEELHLITFETEVYHQGLKIDLETHSLPVVVISNICQMPNAWASILWYNMLTNNPKNVNFFTKPPIGTWDQVAEVLSWQFSSTTKRGLSIEQLTTLAEKLLGPGVNYSGCQITWAKFCKENMAGKGFSFWVWLDNIIDLVKKYILALWNEGYIMGFISKERERAILSTKPPGTFLLRFSESSKEGGVTFTWVEKDISGKTQIQSVEPYTKQQLNNMSFAEIIMGYKIMDATNILVSPLVYLYPDIPKEEAFGKYCRPESQEHPEADPGAAPYLKTKFICVTFIDAVWK
notes: ID; NO:3; NO:4'; It was expressed in B16 cells from pIRES-Stat3β and assayed in nuclear extracts; also called Stat3beta; ST3β
**Q.** Does B1 bind?
**A.** binds
